Test results taken from US20110118172A1 (Takeda / Millennium, published 2011).
Non-standard residues stand in square brackets, D forms with d. No end group written: not given here. *: point of attachment. benzylureido = benzylcarbamoyl on the N-terminal amino group, O=C(NCc1ccccc1)*; amidino = amidino group on the N-terminal amino group, N=C(N)*; Pro(trans-4-F) = O=C(O)[C@@H]1C[C@@H](F)CN1; Arg(Me) = CNC(=N)NCCC[C@H](N)C(=O)O; Dap(CONH2) = NC(=O)NC[C@H](N)C(=O)O; Hyp = O=C(O)[C@@H]1C[C@@H](O)CN1; Cha = N[C@@H](CC1CCCCC1)C(=O)O; dCha = N[C@H](CC1CCCCC1)C(=O)O; Decanoyl = CCCCCCCCCC(=O)*; Carbamoyl = NC(=O)*; azaGly = NNC(=O)O; Ms = CS(=O)(=O)*

biological target: metastin receptor (OT7T175) stably expressed on CHO cells; test: cell-based or functional assay

Row | Binder | Specific Activity: EC50 of the test compound based on EC50 of Metastin (45-54); agonist activity by change in intracellular calcium ion level (Fluo-4 NW, FLIPR) in receptor-expressing CHO cells [ratio]
1 | Ms-[dY][Hyp]NTF[azaGly]L[Arg(Me)]W-NH2 (SMILES CNC(=N)NCCC[C@H](NC(=O)[C@H](CC(C)C)NC(=O)NNC(=O)[C@H](Cc1ccccc1)NC(=O)[C@@H](NC(=O)[C@H](CC(N)=O)NC(=O)[C@@H]1C[C@@H](O)CN1C(=O)[C@@H](Cc1ccc(O)cc1)NS(C)(=O)=O)[C@@H](C)O)C(=O)N[C@@H](Cc1c[nH]c2ccccc12)C(N)=O) [Compound No. 963: des(1)-Ms-[D-Tyr2,Hyp3,Thr5,AzaGly7,Arg(Me)9,Trp10]MS10] | 0.9
2 | Ac-[dY][Hyp][Dap(CONH2)]T[Cha]G[dL][Arg(Me)]W-NH2 (also: Gly7-D-Leu8 -CONH- replaced by (E)-CH=CH-) [Compound No. 976: des(1)-Ac-[D-Tyr2,Hyp3,Alb4,Thr5,Cha6,Gly7ψ((E)CH=CH)D-Leu8,Arg(Me)9,Trp10]MS10] | 1
3 | Decanoyl-[dY][Hyp]NTF[azaGly]L[Arg(Me)]W-NH2 (SMILES CCCCCCCCCC(=O)N[C@H](Cc1ccc(O)cc1)C(=O)N1C[C@H](O)C[C@H]1C(=O)N[C@@H](CC(N)=O)C(=O)N[C@H](C(=O)N[C@@H](Cc1ccccc1)C(=O)NNC(=O)N[C@@H](CC(C)C)C(=O)N[C@@H](CCCNC(=N)NC)C(=O)N[C@@H](Cc1c[nH]c2ccccc12)C(N)=O)[C@@H](C)O) [Compound No. 965: des(1)-decanoyl[D-Tyr2,Hyp3,Thr5,AzaGly7,Arg(Me)9,Trp10]MS10] | 4.1
4 | amidino-[dY][Hyp]NTF[azaGly]L[Arg(Me)]W-NH2 (SMILES CNC(=N)NCCC[C@H](NC(=O)[C@H](CC(C)C)NC(=O)NNC(=O)[C@H](Cc1ccccc1)NC(=O)[C@@H](NC(=O)[C@H](CC(N)=O)NC(=O)[C@@H]1C[C@@H](O)CN1C(=O)[C@@H](Cc1ccc(O)cc1)NC(=N)N)[C@@H](C)O)C(=O)N[C@@H](Cc1c[nH]c2ccccc12)C(N)=O) [Compound No. 971: des(1)-Amidino-[D-Tyr2,Hyp3,Thr5,AzaGly7,Arg(Me)9,Trp10]MS10] | 0.4
5 | Ac-[dY][Hyp][Dap(CONH2)]T[Cha]GL[Arg(Me)]W-NH2 (also: Gly7-Leu8 -CONH- replaced by (E)-CMe=CH-) [Compound No. 986: des(1)-Ac-[D-Tyr2,Hyp3,Alb4,Thr5,Cha6,Gly7ψ((E)CMe=CH)Leu8,Arg(Me)9,Trp10]MS10] | 0.3
6 | Ac-[dY][Hyp][Dap(CONH2)]T[dCha]GL[Arg(Me)]W-NH2 (also: Gly7-Leu8 -CONH- replaced by (E)-CH=CH-) [Compound No. 975: des(1)-Ac-[D-Tyr2,Hyp3,Alb4,Thr5,D-Cha6,Gly7ψ((E)CH=CH)Leu8,Arg(Me)9,Trp10]MS10] | 2.3

The remaining lines, values ahead:

Row | Specific Activity: EC50 of the test compound based on EC50 of Metastin (45-54); agonist activity by change in intracellular calcium ion level (Fluo-4 NW, FLIPR) in receptor-expressing CHO cells [ratio] | Binder
7 | 0.3 | Ac-[dY][Hyp]NT[Cha][azaGly]L[Arg(Me)]W-NH2 [Compound No. 969: des(1)-Ac-[D-Tyr2,Hyp3,Thr5,Cha6,AzaGly7,Arg(Me)9,Trp10]MS10]
8 | 0.6 | Ac-[dY][Pro(trans-4-F)]NT[Cha][azaGly]L[Arg(Me)]W-NH2 [Compound No. 970: des(1)-Ac-[D-Tyr2,Pro(4F)3,Thr5,Cha6,AzaGly7,Arg(Me)9,Trp10]MS10]
9 | 1.7 | [Hyp]NTF[azaGly]L[Arg(Me)]W-NH2 (N-terminus assumed; SMILES CNC(=N)NCCC[C@H](NC(=O)[C@H](CC(C)C)NC(=O)NNC(=O)[C@H](Cc1ccccc1)NC(=O)[C@@H](NC(=O)[C@H](CC(N)=O)NC(=O)[C@@H]1C[C@@H](O)CN1)[C@@H](C)O)C(=O)N[C@@H](Cc1c[nH]c2ccccc12)C(N)=O) [Compound No. 977: des(1-2)-[Hyp3,Thr5,AzaGly7,Arg(Me)9,Trp10]MS10]
10 | 1.9 | benzylureido-[dY][Hyp]NTF[azaGly]L[Arg(Me)]W-NH2 (SMILES CNC(=N)NCCC[C@H](NC(=O)[C@H](CC(C)C)NC(=O)NNC(=O)[C@H](Cc1ccccc1)NC(=O)[C@@H](NC(=O)[C@H](CC(N)=O)NC(=O)[C@@H]1C[C@@H](O)CN1C(=O)[C@@H](Cc1ccc(O)cc1)NC(=O)NCc1ccccc1)[C@@H](C)O)C(=O)N[C@@H](Cc1c[nH]c2ccccc12)C(N)=O) [Compound No. 966: des(1)-Benzylureido-[D-Tyr2,Hyp3,Thr5,AzaGly7,Arg(Me)9,Trp10]MS10]
11 | 0.6 | Carbamoyl-[dY][Hyp]NTF[azaGly]L[Arg(Me)]W-NH2 (SMILES CNC(=N)NCCC[C@H](NC(=O)[C@H](CC(C)C)NC(=O)NNC(=O)[C@H](Cc1ccccc1)NC(=O)[C@@H](NC(=O)[C@H](CC(N)=O)NC(=O)[C@@H]1C[C@@H](O)CN1C(=O)[C@@H](Cc1ccc(O)cc1)NC(N)=O)[C@@H](C)O)C(=O)N[C@@H](Cc1c[nH]c2ccccc12)C(N)=O) [Compound No. 967: des(1)-Ureido-[D-Tyr2,Hyp3,Thr5,AzaGly7,Arg(Me)9,Trp10]MS10]
